Experimental data as given in patent US20110311555A1.

Target: endogenous AP-1 (activator protein 1) in 293 cells, activated by MEKK1
Experiment: cell-based or functional assay
Conditions: scale: normalized promoter activity

With “Tcl1 R52H (pCMV5-TCL1 R52H construct) (from UniProt P56279 1-114)” the AP-1 dependent transactivation (pAP-1-Luc reporter, MEKK1-activated, 293 cells), normalized promoter activity was 176.
